Test results reported in patent US20260209355.

Key:
[1] = system: quenched fluorogenic peptide of the human CD28 stalk region with L145K
[2] = system: quenched fluorogenic peptide of the human CD28 stalk region (WT)
[3] = system: c-Myc conjugated and biotinylated human CD28 stalk region dimeric peptide (wild-type)
Chain of c-Myc conjugated and biotinylated human CD28 stalk region dimeric peptide (wild-type) (chain, as listed by the source): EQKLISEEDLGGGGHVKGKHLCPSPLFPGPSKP

In the case of Recombinant human MMP-13, the “fluorescence from cleavage of quenched fluorogenic peptide (2.5 µM peptide, 30 ng enzyme)” value [1] is reported as “both were completely incapable of cleaving the mutant peptide”, the “fluorescence from cleavage of quenched fluorogenic peptide” value [2] is reported as “MMP-13 also cleaves the stalk domain, but at a much lower rate and efficiency than MMP-2” and the “fluorescence from cleavage of quenched fluorogenic peptide (2.5 µM peptide, 30 ng enzyme)” value [2] is reported as “both enzymes efficiently cleaved the WT peptide”. For the same substance, the “fluorescence from cleavage of quenched fluorogenic peptide, titration of protease” value [2] was “the cleavage of the peptide was dose dependent” and the “intact peptide by anti-Myc ELISA (25 and 50 ng enzyme, 5 hours)” value [3] was “the WT peptide was cleaved in a dose dependent manner”.
